From article PMC12386283, “Elucidating the Complex Structural and Molecular Mechanisms Driving P-Glycoprotein-Mediated Transport of Cardiac Glycosides” (International Journal of Molecular Sciences, 2025)

Legend:
[1] = test system: C[C@H]1O[C@@H](O[C@H]2[C@@H](O)C[C@H](O[C@H]3[C@@H](O)C[C@H](O[C@H]4CC[C@@]5(C)[C@H](CC[C@@H]6[C@@H]5CC[C@]5(C)[C@@H](C7=CC(=O)OC7)CC[C@]65O)C4)O[C@@H]3C)O[C@@H]2C)C[C@H](O)[C@@H]1O; test: purified protein, by the assay type; conditions: other: 37 °C, 3.2 mM ATP, 50 nM proteoliposome, modified Michaelis-Menten fit, pH 7.4
Protocol: The Chifflet method is a colorimetric method that measures the amount of free inorganic phosphate (Pi) through the formation of ammonium molybdate and Pi complex, which produces a strong absorbance at 850 nm. The absorbance was measured on a 96-well plate using a CLARIOstar microplate reader (BMG Labtech, Ortenberg, Germany). […] The final concentrations of the proteoliposome and ATP were maintained at 50 nM and 3.2 mM, respectively. Orthovanadate was used as a control and run in parallel to the samples. Finally, the kinetic curves for ATPase activity were fit to a modified Michaelis-Menten equation (Equation (1)) [83]. Igor 6.2 Pro software (Wavemetrics, Tigard, OR, USA) was used for data analysis.(1) V=VmaxS/Km+S+Vbasal where V = Rate of ATP hydrolysis; Vmax = Maximum velocity of ATP hydrolysis; [S] = Substrate concentration; Km = Michaelis–Menten constant; and Vbasal = basal ATPase activity.

[2] = test system: C[C@]12CC[C@H](O)C[C@H]1CC[C@@H]1[C@@H]2C[C@@H](O)[C@]2(C)[C@@H](C3=CC(=O)OC3)CC[C@]12O; test: purified protein, by the assay type; conditions: other: 37 °C, 3.2 mM ATP, 50 nM proteoliposome, modified Michaelis-Menten fit, pH 7.4

Sequence of wild-type mouse Pgp (MDR3) (Mus musculus) (chain, as listed by the source): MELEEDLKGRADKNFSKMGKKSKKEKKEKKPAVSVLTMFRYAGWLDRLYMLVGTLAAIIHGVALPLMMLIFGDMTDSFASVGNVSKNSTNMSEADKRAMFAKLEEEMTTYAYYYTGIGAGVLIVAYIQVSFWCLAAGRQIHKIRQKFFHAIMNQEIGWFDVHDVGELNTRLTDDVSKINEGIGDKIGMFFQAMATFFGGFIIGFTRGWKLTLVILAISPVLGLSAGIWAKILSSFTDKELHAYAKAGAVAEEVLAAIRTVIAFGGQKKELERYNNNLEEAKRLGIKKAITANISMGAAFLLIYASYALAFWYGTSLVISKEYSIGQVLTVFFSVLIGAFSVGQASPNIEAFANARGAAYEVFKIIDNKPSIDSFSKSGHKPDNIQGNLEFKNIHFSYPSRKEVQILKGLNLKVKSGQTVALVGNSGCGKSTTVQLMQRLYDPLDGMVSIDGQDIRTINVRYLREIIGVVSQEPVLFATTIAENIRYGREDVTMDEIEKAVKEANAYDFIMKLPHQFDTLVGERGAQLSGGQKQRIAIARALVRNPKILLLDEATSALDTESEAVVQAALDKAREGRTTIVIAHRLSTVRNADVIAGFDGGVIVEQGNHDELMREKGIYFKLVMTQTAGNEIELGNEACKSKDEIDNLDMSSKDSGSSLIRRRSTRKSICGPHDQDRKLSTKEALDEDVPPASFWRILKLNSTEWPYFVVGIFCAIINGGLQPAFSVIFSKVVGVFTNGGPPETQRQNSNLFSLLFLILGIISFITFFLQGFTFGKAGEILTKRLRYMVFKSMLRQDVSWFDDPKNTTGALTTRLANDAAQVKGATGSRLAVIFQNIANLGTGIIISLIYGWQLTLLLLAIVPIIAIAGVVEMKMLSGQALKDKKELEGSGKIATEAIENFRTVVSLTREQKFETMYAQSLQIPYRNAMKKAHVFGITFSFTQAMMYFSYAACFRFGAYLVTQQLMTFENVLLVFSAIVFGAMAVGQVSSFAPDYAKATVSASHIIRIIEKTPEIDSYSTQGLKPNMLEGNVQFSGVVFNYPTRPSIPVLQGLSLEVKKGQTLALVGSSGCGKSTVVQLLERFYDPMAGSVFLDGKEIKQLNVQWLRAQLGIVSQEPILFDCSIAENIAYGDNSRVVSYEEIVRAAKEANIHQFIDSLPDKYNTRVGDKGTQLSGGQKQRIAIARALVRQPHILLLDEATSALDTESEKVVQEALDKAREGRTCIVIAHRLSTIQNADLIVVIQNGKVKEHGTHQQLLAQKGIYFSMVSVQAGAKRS

Substance: wild-type mouse Pgp (MDR3) (Mus musculus)
- Km [1]: 99.19 ± 13.3 µM
- Km [2]: 426.82 ± 173.26 µM
- Vmax [2]: 541.92 ± 111 nmol/min/mg
